# Assay results as given in the supplement of paper PMC10567573.
# B1: EPB41L3 (parent)
# chain: FRFAPNHTKELEDKVIELHKSHRG
# Variants of: B1
# Assay: protein stability index of a GFP-peptide fusion (GPS, HEK-293T) (PSI 1-6); higher = more stable
# Conditions: c terminus: a fixed tail appended
# 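Also: lentivirally expressed fusions sorted by FACS into six bins by GFP to DsRed ratio, PSI derived from sequencing read proportions per bin multiplied by bin number.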
row,Variant,protein stability index
1,FRFAPNHTKELEDLVIELHKSHRG,1.78
2,FRFAPNHTKELEDAVIELHKSHRG,2.34
3,FRFAPNHTKELEDNVIELHKSHRG,2.25
4,FRFAPNHTKELEDSVIELHKSHRG,1.97
5,FRFAPNHTKELEDHVIELHKSHRG,2.74
6,FRFAPNHTKELEDWVIELHKSHRG,1.96
7,FRFAPNHTKELEDDVIELHKSHRG,2.32
8,FRFAPNHTKELEDIVIELHKSHRG,2.66
9,FRFAPNHTKELEDRVIELHKSHRG,1.97
10,FRFAPNHTKELEDYVIELHKSHRG,2.44
11,FRFAPNHTKELEDEVIELHKSHRG,2.53
12,FRFAPNHTKELEDCVIELHKSHRG,1.89
13,FRFAPNHTKELEDFVIELHKSHRG,1.8
14,FRFAPNHTKELEDMVIELHKSHRG,2.01
15,FRFAPNHTKELEDPVIELHKSHRG,1.86
16,FRFAPNHTKELEDQVIELHKSHRG,1.56
17,FRFAPNHTKELEDTVIELHKSHRG,2.31
18,FRFAPNHTKELEDVVIELHKSHRG,2.2
19,FRFAPNHTKELEDGVIELHKSHRG,2.48
20,FRFAPNHTKELEAKVIELHKSHRG,1.82
21,FRFAPNHTKELEPKVIELHKSHRG,1.78
22,FRFAPNHTKELEKKVIELHKSHRG,1.86
23,FRFAPNHTKELETKVIELHKSHRG,1.67
24,FRFAPNHTKELEGKVIELHKSHRG,3.4

row,Variant,protein stability index
1,FRFAPNHTKELEMKVIELHKSHRG,1.9
2,FRFAPNHTKELEVKVIELHKSHRG,1
3,FRFAPNHTKELESKVIELHKSHRG,2.14
4,FRFAPNHTKELEFKVIELHKSHRG,1.52
5,FRFAPNHTKELEQKVIELHKSHRG,3.39
6,FRFAPNHTKELEHKVIELHKSHRG,1.89
7,FRFAPNHTKELEEKVIELHKSHRG,2.8
8,FRFAPNHTKELEYKVIELHKSHRG,1.95
9,FRFAPNHTKELEIKVIELHKSHRG,2.9
10,FRFAPNHTKELECKVIELHKSHRG,2.65
11,FRFAPNHTKELELKVIELHKSHRG,2.2
12,FRFAPNHTKELERKVIELHKSHRG,2.77
13,FRFAPNHTKELENKVIELHKSHRG,2.79
14,FRFAPNHTKELEDKYIELHKSHRG,1.99
15,FRFAPNHTKELEDKFIELHKSHRG,2.46
16,FRFAPNHTKELEDKEIELHKSHRG,2.23
17,FRFAPNHTKELEDKMIELHKSHRG,2.87
18,FRFAPNHTKELEDKRIELHKSHRG,1.95
19,FRFAPNHTKELEDKSIELHKSHRG,2.44
20,FRFAPNHTKELEDKPIELHKSHRG,2.33
21,FRFAPNHTKELEDKGIELHKSHRG,2.55
22,FRFAPNHTKELEDKKIELHKSHRG,2.19
23,FRFAPNHTKELEDKCIELHKSHRG,2.24
24,FRFAPNHTKELEDKNIELHKSHRG,2.27

row,Variant,protein stability index
1,FRFAPNHTKELEDKQIELHKSHRG,2.54
2,FRFAPNHTKELEDKHIELHKSHRG,2.38
3,FRFAPNHTKELEDKAIELHKSHRG,2.38
4,FRFAPNHTKELEDKTIELHKSHRG,2.47
5,FRFAPNHTKELEDKLIELHKSHRG,2.69
6,FRFAPNHTKELEDKDIELHKSHRG,2.92
7,FRFAPNHTKELEDKIIELHKSHRG,2.75
8,FRFAPNHTKELEDKWIELHKSHRG,1.93
9,FRFAPNHTKELEDKVIEEHKSHRG,2.43
10,FRFAPNHTKELEDKVIECHKSHRG,2.9
11,FRFAPNHTKELEDKVIEVHKSHRG,1.93
12,FRFAPNHTKELEDKVIEAHKSHRG,3.07
13,FRFAPNHTKELEDKVIEFHKSHRG,1.73
14,FRFAPNHTKELEDKVIEDHKSHRG,3.17
15,FRFAPNHTKELEDKVIEPHKSHRG,1.89
16,FRFAPNHTKELEDKVIEWHKSHRG,1.78
17,FRFAPNHTKELEDKVIEGHKSHRG,2.02
18,FRFAPNHTKELEDKVIETHKSHRG,3.79
19,FRFAPNHTKELEDKVIEYHKSHRG,1.36
20,FRFAPNHTKELEDKVIEMHKSHRG,3.06
21,FRFAPNHTKELEDKVIEHHKSHRG,1.82
22,FRFAPNHTKELEDKVIEQHKSHRG,2.53
23,FRFAPNHTKELEDKVIESHKSHRG,2.51
24,FRFAPNHTKELEDKVIEKHKSHRG,2.6

row,Variant,protein stability index
1,FRFAPNHTKELEDKVIERHKSHRG,2.75
2,FRFAPNHTKELEDKVIENHKSHRG,2.01
3,FRFAPNHTKELEDKVIEIHKSHRG,2.35
4,FRFAPNHTKELEDKVIELHKSWRG,1.65
5,FRFAPNHTKELEDKVIELHKSIRG,1.68
6,FRFAPNHTKELEDKVIELHKSQRG,2.01
7,FRFAPNHTKELEDKVIELHKSERG,2.52
8,FRFAPNHTKELEDKVIELHKSPRG,2.17
9,FRFAPNHTKELEDKVIELHKSTRG,1.76
10,FRFAPNHTKELEDKVIELHKSFRG,1.92
11,FRFAPNHTKELEDKVIELHKSDRG,2.48
12,FRFAPNHTKELEDKVIELHKSRRG,1.68
13,FRFAPNHTKELEDKVIELHKSKRG,1.4
14,FRFAPNHTKELEDKVIELHKSLRG,1.63
15,FRFAPNHTKELEDKVIELHKSARG,1.98
16,FRFAPNHTKELEDKVIELHKSMRG,1.55
17,FRFAPNHTKELEDKVIELHKSGRG,1.91
18,FRFAPNHTKELEDKVIELHKSVRG,1.67
19,FRFAPNHTKELEDKVIELHKSCRG,1.95
20,FRFAPNHTKELEDKVIELHKSNRG,2.34
21,FRFAPNHTKELEDKVIELHKSSRG,2.4
22,FRFAPNHTKELEDKVDELHKSHRG,3.22
23,FRFAPNHTKELEDKVCELHKSHRG,2.14
24,FRFAPNHTKELEDKVNELHKSHRG,2.42

row,Variant,protein stability index
1,FRFAPNHTKELEDKVTELHKSHRG,2.27
2,FRFAPNHTKELEDKVLELHKSHRG,2.01
3,FRFAPNHTKELEDKVKELHKSHRG,2.1
4,FRFAPNHTKELEDKVFELHKSHRG,1.77
5,FRFAPNHTKELEDKVQELHKSHRG,2.12
6,FRFAPNHTKELEDKVGELHKSHRG,1.98
7,FRFAPNHTKELEDKVEELHKSHRG,2.95
8,FRFAPNHTKELEDKVYELHKSHRG,2.43
9,FRFAPNHTKELEDKVRELHKSHRG,1.81
10,FRFAPNHTKELEDKVSELHKSHRG,2.11
11,FRFAPNHTKELEDKVAELHKSHRG,2.46
12,FRFAPNHTKELEDKVHELHKSHRG,2.09
13,FRFAPNHTKELEDKVVELHKSHRG,2.71
14,FRFAPNHTKELEDKVWELHKSHRG,2.13
15,FRFAPNHTKELEDKVPELHKSHRG,2.76
16,FRFAPNHTKELEDKVMELHKSHRG,2.1
17,FRFAPNHTKELEDKVIELHHSHRG,2.44
18,FRFAPNHTKELEDKVIELHYSHRG,2.95
19,FRFAPNHTKELEDKVIELHQSHRG,1.29
20,FRFAPNHTKELEDKVIELHMSHRG,1.81
21,FRFAPNHTKELEDKVIELHISHRG,2.12
22,FRFAPNHTKELEDKVIELHTSHRG,2.12
23,FRFAPNHTKELEDKVIELHRSHRG,1.39
24,FRFAPNHTKELEDKVIELHCSHRG,2.09

row,Variant,protein stability index
1,FRFAPNHTKELEDKVIELHVSHRG,2.71
2,FRFAPNHTKELEDKVIELHFSHRG,1.55
3,FRFAPNHTKELEDKVIELHDSHRG,1.96
4,FRFAPNHTKELEDKVIELHGSHRG,2.22
5,FRFAPNHTKELEDKVIELHLSHRG,2.81
6,FRFAPNHTKELEDKVIELHPSHRG,2.64
7,FRFAPNHTKELEDKVIELHSSHRG,1.67
8,FRFAPNHTKELEDKVIELHNSHRG,2.57
9,FRFAPNHTKELEDKVIELHWSHRG,1.54
10,FRFAPNHTKELEDKVIELHESHRG,2.84
11,FRFAPNHTKELEDKVIELHASHRG,2.29
12,FRFAPNHTKELEDKVIELHKLHRG,1.83
13,FRFAPNHTKELEDKVIELHKTHRG,2.47
14,FRFAPNHTKELEDKVIELHKMHRG,2.14
15,FRFAPNHTKELEDKVIELHKKHRG,1.74
16,FRFAPNHTKELEDKVIELHKIHRG,2.25
17,FRFAPNHTKELEDKVIELHKHHRG,1.71
18,FRFAPNHTKELEDKVIELHKRHRG,2.1
19,FRFAPNHTKELEDKVIELHKGHRG,2.42
20,FRFAPNHTKELEDKVIELHKFHRG,1.78
21,FRFAPNHTKELEDKVIELHKCHRG,1.78
22,FRFAPNHTKELEDKVIELHKDHRG,2.56
23,FRFAPNHTKELEDKVIELHKAHRG,2.47
24,FRFAPNHTKELEDKVIELHKQHRG,2.59

row,Variant,protein stability index
1,FRFAPNHTKELEDKVIELHKYHRG,2.4
2,FRFAPNHTKELEDKVIELHKNHRG,2.88
3,FRFAPNHTKELEDKVIELHKVHRG,2.2
4,FRFAPNHTKELEDKVIELHKEHRG,2.9
5,FRFAPNHTKELEDKVIELHKWHRG,1.41
6,FRFAPNHTKELEDKVIELYKSHRG,1.88
7,FRFAPNHTKELEDKVIELGKSHRG,1.88
8,FRFAPNHTKELEDKVIELRKSHRG,2.19
9,FRFAPNHTKELEDKVIELVKSHRG,1.89
10,FRFAPNHTKELEDKVIELAKSHRG,2.11
11,FRFAPNHTKELEDKVIELMKSHRG,2.05
12,FRFAPNHTKELEDKVIELPKSHRG,2.72
13,FRFAPNHTKELEDKVIELDKSHRG,2.07
14,FRFAPNHTKELEDKVIELTKSHRG,1.81
15,FRFAPNHTKELEDKVIELLKSHRG,2.12
16,FRFAPNHTKELEDKVIELQKSHRG,2.66
17,FRFAPNHTKELEDKVIELKKSHRG,1.99
18,FRFAPNHTKELEDKVIELCKSHRG,2.03
19,FRFAPNHTKELEDKVIELEKSHRG,2.72
20,FRFAPNHTKELEDKVIELIKSHRG,1.83
21,FRFAPNHTKELEDKVIELSKSHRG,2.11
22,FRFAPNHTKELEDKVIELWKSHRG,1.53
23,FRFAPNHTKELEDKVIELFKSHRG,1.95
24,FRFAPNHTKELEDKVIQLHKSHRG,1.55

row,Variant,protein stability index
1,FRFAPNHTKELEDKVIFLHKSHRG,2.34
2,FRFAPNHTKELEDKVIGLHKSHRG,1.76
3,FRFAPNHTKELEDKVITLHKSHRG,1.86
4,FRFAPNHTKELEDKVIVLHKSHRG,2.55
5,FRFAPNHTKELEDKVIHLHKSHRG,2.04
6,FRFAPNHTKELEDKVIMLHKSHRG,2.5
7,FRFAPNHTKELEDKVIILHKSHRG,2.21
8,FRFAPNHTKELEDKVIKLHKSHRG,1.72
9,FRFAPNHTKELEDKVILLHKSHRG,1.67
10,FRFAPNHTKELEDKVIDLHKSHRG,2.18
11,FRFAPNHTKELEDKVIYLHKSHRG,2.66
12,FRFAPNHTKELEDKVIWLHKSHRG,2.18
13,FRFAPNHTKELEDKVIALHKSHRG,1.74
14,FRFAPNHTKELEDKVIPLHKSHRG,2.43
15,FRFAPNHTKELEDKVISLHKSHRG,2.12
16,FRFAPNHTKELEDKVINLHKSHRG,2.29
17,FRFAPNHTKELEDKVICLHKSHRG,1.95
18,FRFAPNHTKELYDKVIELHKSHRG,1.22
19,FRFAPNHTKELWDKVIELHKSHRG,2.97
20,FRFAPNHTKELVDKVIELHKSHRG,1.45
